# From patent US12491259B2, “Anti-variable MUC1* antibodies and uses thereof” (Minerva Biotechnologies Corporation, priority 2022, dated 2025)
# B1: MN20A10-MMAF (conjugate)
# VH: QVQLVESGGGLVKPGGSLRLSCAASGFTFSTYAMSWIRQAPGKGLEWVASIGRAGSTYYSDSVKGRFTISRDNAKNSLYLQMNSLRAEDTAVYYCARGPIYNDYDEFAYWGQGTLVTVSS
# VL: EIVLTQSPATLSLSPGERATLSCKSSQSVLYSSNQKNYLAWYQQKPGQAPRLLIYWASTRESGIPARFSGSGSGTDFTLTISSLEPEDFAVYYCHQYLSSLTFGGGTKVEIKR
# B2: MNC2-MMAF (conjugate)
# VH: EVQLVESGGGLVKPGGSLRLSCAASGFTFSGYAMSWVRQAPGKGLEWVSTISSGGTYIYYPDSVKGRFTISRDNAKNSLYLQMNSLRAEDTAVYYCARLGGDNYYEYFDVWGKGTTVTVSS
# VL: DIVLTQSPASLAVSPGQRATITCRASKSVSTSGYSYMHWYQQKPGQPPKLLIYLASNLESGVPARFSGSGSGTDFTLTINPVEANDTANYYCQHSRELPFTFGGGTKVEIKRT
# B3: MNC2-Deruxtecan (conjugate)
# VH: EVQLVESGGGLVKPGGSLRLSCAASGFTFSGYAMSWVRQAPGKGLEWVSTISSGGTYIYYPDSVKGRFTISRDNAKNSLYLQMNSLRAEDTAVYYCARLGGDNYYEYFDVWGKGTTVTVSS
# VL: DIVLTQSPASLAVSPGQRATITCRASKSVSTSGYSYMHWYQQKPGQPPKLLIYLASNLESGVPARFSGSGSGTDFTLTINPVEANDTANYYCQHSRELPFTFGGGTKVEIKRT
# Assays:
# [1] = system: T47D-MUC1* breast cancer cells; experiment: xCELLigence real-time killing assay (impedance); type: cell-based, human; conditions: for ADC concentration at which essentially all (near total) tumor cells were killed: readout 120 hours post ADC addition
# Procedure: In this assay, impedance is measured in real-time. When the adherent cancer cells are killed and come off of the electrode surface, impedance (insulation) decreases. […] Either MNC2-MMAE, DAR 4.1, MN20A10-MMAE, DAR 5.8, MNC2-MMAF, DAR 3.7, MN20A10-MMAF, DAR 3.8, MNC2-Deruxtecan, DAR 7.2, or MN20A10-Deruxtecan, DAR 4.6, was then added to the cancer cells. […] Taxol and Triton are added as the positive killing control. […] Taxol and Triton are added as the positive killing control.
# In this assay, impedance is measured in real-time. When the adherent cancer cells are killed and come off of the electrode surface, impedance (insulation) decreases. […] Either MNC2-Exatecan, DAR 8.2, MNC2-Deruxtecan, DAR 4.0, MNC2-MMAE, DAR 4.1, or free Exatecan at 50 μM, was then added to the cancer cells.
# (§1) To assess real-time killing of target cancer cells including breast cancer cells (T47D), non-small cell lung cancer cells (NCI-H1975) and pancreatic cancer cells (HP AF II) assays were performed on an xCELLigence RTCA MP Instrument (Agilent). Target Cancer cells were seeded onto a multi-electrode well plate at a density of 5000 cells/well (100 μL of a 50,000 cells/mL stock) and incubated for 24 hr in a 37° C./5% CO2 incubator. mAb MNC2 ADCs or mAb MN20A10-ADCs were prepared as a 2× solution in corresponding growth media and 100 μL of each concentration was added to target cells. As a positive control (100% cell killing) cells were treated with either 1% triton or 1 μM Taxol instead of ADC. After 40-120 hours incubation in a 37° C./5% CO2 incubator cell killing was assessed. In this assay, impedance is measured in real-time. When the adherent cancer cells are killed and come off the electrode surface, impedance (insulation) decreases.
# (§2) MNC2-ADCs and MN20A10-ADCs were also assayed for their ability to kill both low and high MUC1* expressing cells by monitoring killing in real-time using an xCELLigence instrument. In the xCelligence system, target cancer cells, which are adherent, are plated onto electrode array 96-well plates. Adherent cells insulate the electrode and increase the impedance. The number of adherent cancer cells is directly proportional to impedance. […] Therefore, increasing impedance reflects the growth of the cancer cells and decreasing impedance reflects the killing of the cancer cells.
# [2] = system: NCI-H1975 lung cancer cells; experiment: xCELLigence real-time killing assay (impedance); type: cell-based, human; conditions: for time course of effect: 40 hours versus 120 hours; for ADC concentration at which essentially all the lung tumor cells were killed: readout 40 hours; for ADC concentration at which essentially all the tumor cells were killed: readout 120 hours post ADC addition
# Procedure: FIG. 51A-51I show traces from the real-time killing assays performed on an xCELLigence instrument. In this assay, impedance is measured in real-time. When the adherent cancer cells are killed and come off of the electrode surface, impedance (insulation) decreases. NCI-H1975 lung cancer cells were plated onto multi-electrode-well plates at 5,000 cells per well and allowed to adhere and grow for 24 hours before the addition of ADCs. Either MNC2-MMAE, DAR 4.1, MN20A10-MMAE, DAR 5.8, MNC2-MMAF, DAR 3.7, MN20A10-MMAF, DAR 3.8, MNC2-Deruxtecan, DAR 7.2, or MN20A10-Deruxtecan, DAR 4.6, was then added to the cancer cells. […] Taxol and Triton are added as the positive killing control. […].
# FIGS. 56A-56D show traces from the real-time killing assays performed on an xCELLigence instrument. In this assay, impedance is measured in real-time. When the adherent cancer cells are killed and come off of the electrode surface, impedance (insulation) decreases. Here NCI-H1975 non-small cell lung cancer cells that express very low levels of MUC1*, were plated onto multi-electrode 96-well plates at 5,000 cells per well and allowed to adhere and grow for 24 hours before the addition of ADCs. Either MNC2-Exatecan, DAR 8.2, MNC2-Deruxtecan, DAR 4.0, MNC2-MMAE, DAR 4.1, or free Exatecan at 50 μM, was then added to the cancer cells.
# as §1, §2
Molecule,ADC concentration at which essentially all the tumor cells are killed ([1]; readout 40 hours post ADC addition) [nM],ADC concentration at which essentially all (near total) tumor cells were killed [1] [nM],time course of effect [2],ADC concentration at which essentially all the lung tumor cells were killed [2] [nM],ADC concentration at which essentially all the tumor cells were killed [2] [nM],"concentration as low as which cancer cells are potently killed ([1]; readout 0 to 120 hours, MNC2-Exatecan DAR 8.2, MNC2-Deruxtecan DAR 4.0 (FIG. 55))"
B1,56,19,"stasis at 40 hours, but killing at 120 hours",167,56,
B2,,,"stasis at 40 hours, but killing at 120 hours",167,56,
B3,,6,"stasis at 40 hours, but killing at 120 hours",,,as low as 6.2 nM and even as low as 2.1 nM
